Experimental data published in article PMC2965120, “Ribonucleoprotein Particles Containing Non-Coding Y RNAs, Ro60, La and Nucleolin Are Not Required for Y RNA Function in DNA Replication”.

Legend:
[1] = molecular target: T1, La (human, UniProt P05455 1-408); assay: EMSA; 10-fold molar excess competitor tRNA; >90% of RNA shifted at 1:1 protein:RNA; 10 mM Tris-HCl pH 7.5, 100 mM NaCl, 3 mM MgCl2, 1 mM DTT, 10-fold molar excess tRNA, 80 ng hY1 RNA, 15 min at 37 C; native 8% PAGE at 4 C; details: protein: recombinant; label: 32P (alpha-32P UTP, internal)
T1 sequence: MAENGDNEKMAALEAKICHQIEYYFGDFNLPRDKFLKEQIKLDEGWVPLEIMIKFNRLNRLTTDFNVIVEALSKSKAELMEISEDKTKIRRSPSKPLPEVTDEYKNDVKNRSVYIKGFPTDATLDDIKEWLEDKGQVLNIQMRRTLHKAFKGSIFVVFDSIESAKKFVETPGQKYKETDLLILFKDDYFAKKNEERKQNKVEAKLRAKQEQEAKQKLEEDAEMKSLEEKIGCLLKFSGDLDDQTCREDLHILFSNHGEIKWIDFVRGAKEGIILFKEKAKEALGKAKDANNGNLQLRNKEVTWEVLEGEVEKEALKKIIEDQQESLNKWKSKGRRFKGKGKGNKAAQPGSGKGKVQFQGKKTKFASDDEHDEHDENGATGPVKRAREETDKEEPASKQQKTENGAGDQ

[2] = molecular target: Ro60 (human, UniProt P10155 1-538); assay: EMSA; 10-fold molar excess competitor tRNA; about 30-40% of RNA shifted at 4:1 protein:RNA; 10 mM Tris-HCl pH 7.5, 100 mM NaCl, 3 mM MgCl2, 1 mM DTT, 10-fold molar excess tRNA, 80 ng hY1 RNA, 15 min at 37 C; native 8% PAGE at 4 C; details: protein: recombinant; tags: poly-His (pET28a); label: 32P (alpha-32P UTP, internal)
Ro60, sequence (P10155 whole entry): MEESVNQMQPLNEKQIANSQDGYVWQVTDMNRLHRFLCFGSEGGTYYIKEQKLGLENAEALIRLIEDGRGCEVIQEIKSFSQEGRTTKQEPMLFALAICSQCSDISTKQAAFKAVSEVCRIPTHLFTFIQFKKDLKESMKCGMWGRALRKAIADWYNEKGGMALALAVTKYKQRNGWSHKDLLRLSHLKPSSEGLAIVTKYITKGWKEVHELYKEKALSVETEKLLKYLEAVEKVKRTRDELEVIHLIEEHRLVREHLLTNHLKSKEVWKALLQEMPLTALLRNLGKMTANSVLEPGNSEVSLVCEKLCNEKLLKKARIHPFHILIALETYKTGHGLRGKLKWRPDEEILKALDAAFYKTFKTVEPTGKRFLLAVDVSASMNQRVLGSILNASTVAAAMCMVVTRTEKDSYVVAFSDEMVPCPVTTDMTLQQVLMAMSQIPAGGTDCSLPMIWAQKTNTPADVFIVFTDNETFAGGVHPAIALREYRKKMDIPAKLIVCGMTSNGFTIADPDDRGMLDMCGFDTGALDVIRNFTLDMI

[3] = molecular target: Ro60;La (human;human, UniProt P10155;P05455 1-538;1-408, |); assay: EMSA; 10-fold molar excess competitor tRNA; RNA:Ro60:La 1:4:4; super-shift, ternary complex; 10 mM Tris-HCl pH 7.5, 100 mM NaCl, 3 mM MgCl2, 1 mM DTT, 10-fold molar excess tRNA, 80 ng hY1 RNA, 15 min at 37 C; native 8% PAGE at 4 C; details: protein: recombinant;recombinant; copies: 1;1; label: 32P (alpha-32P UTP, internal)
Ro60;La, sequence (P10155 whole entry, one chain of several): as the sequence (P10155 whole entry) above

Measured: binding result

B1: hY1 RNA (structured_RNA)
RNA: GGCUGGUCCGAAGGUAGUGAGUUAUCUCAAUUGAUUGUUCACAGUCAGUUACAGAUCGAACUCCUUGUUCUACUCUUUCCCCCCUUCUCACUACUGCACUUGACUAGUCUUU
binds: all assays above
